Reference: patent US20050147555A1 (BRACCO SUISSE, published 2005)
Positions of bridges follow the written chain, without caps; N, C: chain ends. Groups on a side chain read outwards from the residue. Primed or numbered codes have the meaning given here. Chains are numbered I, II in the order given. No end group written: not given here. *: point of attachment. ivDde′ = 1-(4,4-dimethyl-2,6-dioxocyclohex-1-ylidene)-3-methylbutyl, CC(C)CC(=C1C(=O)CC(C)(C)CC1=O)*; Biotin = O=C1N[C@H]2[C@H](CS[C@H]2CCCCC(=O)*)N1; AEEA = NCCOCCOCC(=O)O

Tests used:
[1] = target: T1, KDR (VEGFR-2, Flk-1), full-length receptor on cells (human, UniProt P35968 20-1356); assay: competition: corresponding free peptide against P12-conjugated microbubbles on KDR-transfected 293H cells, % binding (surface covered, relative)
T1 construct: whole, on cells; endogenous on HUVECs in the functional assays; also called VEGF receptor 2
T1 sequence (P35968 20-1356): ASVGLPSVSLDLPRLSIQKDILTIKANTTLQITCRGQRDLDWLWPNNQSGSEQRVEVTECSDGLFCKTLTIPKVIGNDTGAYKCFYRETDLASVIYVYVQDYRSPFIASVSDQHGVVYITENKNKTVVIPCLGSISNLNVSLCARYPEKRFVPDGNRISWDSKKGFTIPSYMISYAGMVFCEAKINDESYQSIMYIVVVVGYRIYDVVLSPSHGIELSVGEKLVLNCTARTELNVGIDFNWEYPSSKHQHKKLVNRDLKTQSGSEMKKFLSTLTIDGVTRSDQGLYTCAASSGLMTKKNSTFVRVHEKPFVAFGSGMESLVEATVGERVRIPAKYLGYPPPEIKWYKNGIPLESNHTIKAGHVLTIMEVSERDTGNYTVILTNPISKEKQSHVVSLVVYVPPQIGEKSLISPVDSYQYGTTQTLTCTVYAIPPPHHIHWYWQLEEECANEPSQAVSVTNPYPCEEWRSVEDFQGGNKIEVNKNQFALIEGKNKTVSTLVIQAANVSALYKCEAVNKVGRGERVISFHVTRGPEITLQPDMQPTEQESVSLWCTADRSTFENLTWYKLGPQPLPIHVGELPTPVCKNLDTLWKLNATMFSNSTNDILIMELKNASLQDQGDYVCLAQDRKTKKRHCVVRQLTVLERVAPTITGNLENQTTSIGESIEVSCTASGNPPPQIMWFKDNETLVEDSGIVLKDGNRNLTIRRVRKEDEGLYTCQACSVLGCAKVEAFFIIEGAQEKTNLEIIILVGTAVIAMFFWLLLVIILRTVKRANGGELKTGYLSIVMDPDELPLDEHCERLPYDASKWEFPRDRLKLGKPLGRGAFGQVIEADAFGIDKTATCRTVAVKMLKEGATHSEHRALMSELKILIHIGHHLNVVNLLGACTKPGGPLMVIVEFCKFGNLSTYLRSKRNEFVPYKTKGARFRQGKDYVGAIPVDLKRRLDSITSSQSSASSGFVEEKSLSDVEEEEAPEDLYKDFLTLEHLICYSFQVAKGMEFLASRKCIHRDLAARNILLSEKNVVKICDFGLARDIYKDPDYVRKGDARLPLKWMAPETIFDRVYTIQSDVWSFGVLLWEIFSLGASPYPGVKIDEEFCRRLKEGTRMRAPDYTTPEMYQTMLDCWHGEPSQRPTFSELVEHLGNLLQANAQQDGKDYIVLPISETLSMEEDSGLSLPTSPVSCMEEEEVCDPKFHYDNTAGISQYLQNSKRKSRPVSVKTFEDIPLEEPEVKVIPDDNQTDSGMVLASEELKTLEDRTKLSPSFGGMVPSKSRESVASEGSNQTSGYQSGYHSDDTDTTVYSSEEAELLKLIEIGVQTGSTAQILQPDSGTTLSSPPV

[2] = target: T1, KDR (VEGFR-2, Flk-1), full-length …; assay: cell-based or functional assay
[3] = target: T1, KDR (VEGFR-2, Flk-1), full-length …; assay: competition: free dimer against P13-conjugated microbubbles on KDR-transfected 293H cells, % binding
[4] = target: T1, KDR (VEGFR-2, Flk-1), full-length …; assay: competition: corresponding free peptide against D23-conjugated microbubbles on KDR-transfected 293H cells, % binding (surface covered, relative)
[5] = target: T1, KDR (VEGFR-2, Flk-1), full-length …; assay: competition with 125I-VEGF for specific binding to KDR-transfected 293H cells, % inhibition
[6] = target: T1, KDR (VEGFR-2, Flk-1), full-length …; assay: competition with 125I-labeled VEGF for binding to KDR-transfected 293H cells, % inhibition of specific binding
[7] = target: T1, KDR (VEGFR-2, Flk-1), full-length …; assay: binding of the 125I-labeled dimer to KDR- and mock-transfected 293H cells with and without 40% mouse serum, CPM bound
[8] = target: T1, KDR (VEGFR-2, Flk-1), full-length …; assay: competition with 125I-VEGF on KDR-transfected 293H cells
[9] = target: T2, KDR-Fc (chimeric fusion of Ig Fc region with human KDR, R&D Systems #357-KD-050) (human, UniProt P35968 20-764); assay: fluorescence polarisation against KDR-Fc
T2 construct: Bought; also called KDR Fc fusion; not shown: Ig Fc region of the bought chimera
T2 sequence (P35968 20-764, stated change not applied): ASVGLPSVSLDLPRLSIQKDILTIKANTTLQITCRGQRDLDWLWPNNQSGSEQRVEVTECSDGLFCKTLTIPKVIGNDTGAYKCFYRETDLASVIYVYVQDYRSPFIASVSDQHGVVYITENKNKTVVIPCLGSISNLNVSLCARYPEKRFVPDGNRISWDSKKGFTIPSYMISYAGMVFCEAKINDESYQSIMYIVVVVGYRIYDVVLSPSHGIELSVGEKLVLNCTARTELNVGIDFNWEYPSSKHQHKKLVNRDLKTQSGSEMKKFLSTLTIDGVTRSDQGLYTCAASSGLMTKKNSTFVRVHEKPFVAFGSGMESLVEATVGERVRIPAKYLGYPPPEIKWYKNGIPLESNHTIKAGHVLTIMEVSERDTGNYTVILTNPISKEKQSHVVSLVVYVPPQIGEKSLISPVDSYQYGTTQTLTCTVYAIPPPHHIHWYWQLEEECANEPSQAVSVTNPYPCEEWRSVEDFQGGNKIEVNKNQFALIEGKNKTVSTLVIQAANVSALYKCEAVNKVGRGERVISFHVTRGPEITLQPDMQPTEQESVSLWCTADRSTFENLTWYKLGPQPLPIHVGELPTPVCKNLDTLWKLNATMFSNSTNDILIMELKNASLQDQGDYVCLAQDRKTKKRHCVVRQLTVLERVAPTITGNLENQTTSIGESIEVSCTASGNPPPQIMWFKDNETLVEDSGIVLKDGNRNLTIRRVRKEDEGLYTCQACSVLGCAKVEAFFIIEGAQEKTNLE

[10] = target: T1, KDR (VEGFR-2, Flk-1), full-length …; assay: P13-conjugated microbubbles on KDR-transfected 293H cells in the presence of rising free dimer (f5), % binding
[11] = target: T1, KDR (VEGFR-2, Flk-1), full-length …; assay: binding of the 99mTc-labeled scrambled dimer (D18 by legend paragraph 74; name box empty) to KDR- and mock-transfected 293H cells with and without 40% mouse serum, bound CPM
[12] = target: T1, KDR (VEGFR-2, Flk-1), full-length …; assay: displacement of P12-XB/streptavidin-HRP complex (5.5 nM) from KDR-expressing cells
[13] = target: T3, murine KDR-Fc (recombinant, R&D Systems #443-KD-050) (murine, UniProt P35918 20-762); assay: SPR (BIAcore), murine KDR-Fc 2700 RU; KD1 = kd1/ka1
T3 construct: Bought; also called rmKDR-Fc; recombinant murine KDR-Fc; not shown: Ig Fc region of the bought chimera
T3 sequence (P35918 20-762): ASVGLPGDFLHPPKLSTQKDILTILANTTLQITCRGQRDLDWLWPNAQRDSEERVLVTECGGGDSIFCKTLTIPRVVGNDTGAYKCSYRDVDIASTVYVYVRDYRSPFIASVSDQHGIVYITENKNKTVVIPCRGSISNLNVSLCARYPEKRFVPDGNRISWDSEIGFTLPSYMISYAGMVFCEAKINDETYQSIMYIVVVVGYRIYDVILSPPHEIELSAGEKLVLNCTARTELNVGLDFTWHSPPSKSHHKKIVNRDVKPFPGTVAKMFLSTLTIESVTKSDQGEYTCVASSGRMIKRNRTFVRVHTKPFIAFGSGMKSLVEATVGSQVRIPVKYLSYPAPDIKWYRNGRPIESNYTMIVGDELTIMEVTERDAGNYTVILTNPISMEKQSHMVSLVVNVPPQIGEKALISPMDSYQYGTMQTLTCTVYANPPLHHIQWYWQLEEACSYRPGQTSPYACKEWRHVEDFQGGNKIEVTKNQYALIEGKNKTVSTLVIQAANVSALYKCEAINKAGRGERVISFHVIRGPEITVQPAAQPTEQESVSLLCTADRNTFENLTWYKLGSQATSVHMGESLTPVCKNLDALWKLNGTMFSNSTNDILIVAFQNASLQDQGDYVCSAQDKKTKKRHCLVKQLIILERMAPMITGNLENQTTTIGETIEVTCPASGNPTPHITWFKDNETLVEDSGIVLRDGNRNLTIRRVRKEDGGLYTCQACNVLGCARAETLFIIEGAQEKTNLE

[14] = target: T3, murine KDR-Fc (recombinant, R&D Systems …); assay: SPR (BIAcore), murine KDR-Fc 5000 RU; KD1 = kd1/ka1

B1: P12 (peptide)
peptide: AGPTWCEDDWYYCWLFGT
modifications: disulfide 6-13
notes: the list holds only the microbubble conjugate m56 and other P12 derivatives
Question: Does B1 bind [1]?
Answer: binds

Question: How did the “VEGF-induced KDR phosphorylation in HUVECs (immunoblot)” value [2] turn out when Ac-AGWLECYAEFGHCYNFGTGGGK-NH2 (disulfide 6-13 (inferred)) [P3-D] was run?
Answer: ≥ 50 % inhibition at 10 µM

B2: D23 (peptide)
P12-derived peptide: Ac-AGPTWCEDDWYYCWLFGTGGGK-NH2
truncated P6-derived peptide: Ac-VCWEDSWGGEVCFRYDPGGGK-NH2
modifications: disulfide I:6-I:13, II:2-II:12; not fully specified (bridges)
notes: Free, not on microbubbles (the list holds only the conjugate m37); The text says only 'corresponding free' dimeric peptide; also called free dimer
Question: Which results are given for B2?
Answer: IC50 (read off the curve) [3]: ~20 nM; IC50 (read off the curve) [4]: ~30 nM

B3: D1 (peptide)
peptide 1: AGPTWCEDDWYYCWLFGTGGGK
peptide 2: VCWEDSWGGEVCFRYDPGGGK
modifications: not fully specified; N-acetyl; C2-C12 disulfide; C-terminal Lys amide (printed as NH(CH2)4-(S)-CH(..NH)CONH2), side chain joined to linker; N-acetyl; C6-C13 disulfide; C-terminal amide; Lys22 side chain bears branch/linker
notes: J = 8-amino-3,6-dioxaoctanoyl; also called DI
Question: How did the “IC50 in the activation assay against that of D2” value [2] turn out when B3 was run?
Answer: ≥ 100 fold lower than D2

Question: Ac-AQGDYVYWEIIELTGATDHTPPGGGK-NH2 [P11-D] was tested. Which “VEGF-induced KDR phosphorylation in HUVECs (immunoblot)” value [2] did it give?
Answer: ≥ 50 % inhibition at 10 µM

B4: PG-1 (peptide)
peptide: Ac-ERVTTCWPGEYGGVECYSVAY-NH2
modifications: not fully specified (bridges); printed as Ac-ERVTTCWPGEYGGVECYSVAY—NH2; cysteine pairing not given here
Question: Does B4 bind [5]?
Answer: binds

Question: How did the “VEGF-induced KDR phosphorylation in HUVECs (immunoblot)” value [2] turn out when Ac-GDPDTCTMWGDSGRWYCFPADPGGGK-NH2 (disulfide 6-17 (inferred)) [P8-D] was run?
Answer: ≥ 50 % inhibition at 10 µM

Question: Which “VEGF-induced KDR phosphorylation in HUVECs (immunoblot)” value [2] does the source give for Ac-GDWWECK(ivDde′)REEYRNTTWCAWADPGGGK-NH2 (disulfide 6-17 (inferred)) [P7-E] here?
Answer: ≥ 50 % inhibition at 10 µM

Question: Does Ac-AQDWYYDEILSMADQLRHAFLSGG-NH2 [P13-D] bind [6]?
Answer: binds

B5: D24 (peptide)
peptide 1: AGPTWCEDDWYYCWLFGTGGGK
peptide 2: VCWEDSWGGEVCFRYDPGGGK
modifications: not fully specified; N-acetyl; C2-C12 disulfide; C-terminal amide; Lys21 side chain joined to JJ-glutaryl linker; N-acetyl; C6-C13 disulfide; C-terminal amide; Lys22 side chain bears SATA-JJ-Lys branch
Question: B5 was tested. Which “IC50, VEGF-induced migration of HUVECs” value [2] did it give?
Answer: 5 nM

B6: D3 (peptide)
peptide 1: VCWEDSWGGEVCFRYDPGGGK
peptide 2: VCWEDSWGGEVCFRYDPGGGK
modifications: not fully specified; N-acetyl; C2-C12 disulfide; C-terminal Lys amide, side chain joined to linker; N-acetyl; C2-C12 disulfide; C-terminal amide; Lys21 side chain bears Biotin-JJK branch and linker
Question: Does B6 bind [6]?
Answer: binds

B7: 125I-labeled D5 (peptide)
peptide 1: VCWEDSWGGEVCFRYDPGGGK
peptide 2: AGPTWCEDDWYYCWLFGTGGGK
modifications: not fully specified; N-acetyl; C6-C13 disulfide; C-terminal Lys amide, side chain carries the branching Lys; 125I Bolton-Hunter label on the free amine; N-acetyl; C2-C12 disulfide; C-terminal amide; Lys21 side chain joined to JJ-glutaryl linker
Question: Does B7 bind [7]?
Answer: binds

B8: D2 (peptide)
peptide 1: AGPTWCEDDWYYCWLFGTGGGK
peptide 2: AGPTWCEDDWYYCWLFGTK
modifications: not fully specified; N-acetyl; C6-C13 disulfide; J (8-amino-3,6-dioxaoctanoyl) between Thr18 and the C-terminal Lys amide, whose side chain is joined to the linker; N-acetyl; C6-C13 disulfide; C-terminal amide; Lys22 side chain bears branch/linker
Question: Does B8 bind [6]?
Answer: binds

B9: P12-XB (peptide)
peptide: Ac-AGPTWCEDDWYYCWLFGTGGGK([AEEA-AEEA-Biotin])-NH2
modifications: disulfide 6-13
SMILES: CC(=O)N[C@@H](C)C(=O)NCC(=O)N1CCC[C@H]1C(=O)N[C@H](C(=O)N[C@@H](Cc1c[nH]c2ccccc12)C(=O)N[C@H]1CSSC[C@@H](C(=O)N[C@@H](Cc2c[nH]c3ccccc23)C(=O)N[C@@H](CC(C)C)C(=O)N[C@@H](Cc2ccccc2)C(=O)NCC(=O)N[C@H](C(=O)NCC(=O)NCC(=O)NCC(=O)N[C@@H](CCCCNC(=O)COCCOCCNC(=O)COCCOCCNC(=O)CCCC[C@@H]2SC[C@@H]3NC(=O)N[C@@H]32)C(N)=O)[C@@H](C)O)NC(=O)[C@H](Cc2ccc(O)cc2)NC(=O)[C@H](Cc2ccc(O)cc2)NC(=O)[C@H](Cc2c[nH]c3ccccc23)NC(=O)[C@H](CC(=O)O)NC(=O)[C@H](CC(=O)O)NC(=O)[C@H](CCC(=O)O)NC1=O)[C@@H](C)O
notes: Free monomeric peptide
Question: B9 was tested. Which “IC50, VEGF-induced KDR phosphorylation in HUVECs” value [2] did it give?
Answer: 100 nM

Question: And the “% inhibition of 125I-VEGF binding at 0.3 µM” value [8]?
Answer: 81%

Question: What about the “% inhibition of 125I-VEGF binding at 30 µM” value [8] of the same binder?
Answer: 104%

Question: How did the “VEGF-induced KDR phosphorylation in HUVECs (immunoblot)” value [2] turn out when Ac-AQEPEGYAYWEVITLYHEEDGDGGK-NH2 [P9-D] was run?
Answer: ≥ 50 % inhibition at 10 µM

Question: Which “VEGF-induced KDR phosphorylation in HUVECs (immunoblot)” value [2] does the source give for Ac-AQAFPRFGGDDYWIQQYLRYTDGGK-NH2 [P10-D] here?
Answer: ≥ 50 % inhibition at 10 µM

Question: Which Kd [9] does the source give for AGDSWCSTEYTYCEMIGT (disulfide 6-13; not fully specified) [P4] here?
Answer: > 2000 nM

Question: Does AQDWYYDEILSMADQLRHAFLSGG (also: conjugated to microbubbles) [P13 conjugated to microbubbles] bind [10]?
Answer: binds

Question: Which results are given for GDSRVCWEDSWGGEVCFRYDP (disulfide 6-16 (inferred)) [P6]?
Answer: % inhibition of 125I-VEGF binding at 0.3 µM [8]: 52.3%; % inhibition of 125I-VEGF binding at 30 µM [8]: 96.3%

B10: 99mTc-labeled D18 (peptide)
peptide 1: Ac-APGTWCDYDWEYCWLGTFGGGK-NH2
peptide 2: Ac-GVDFRCEWSDWGEVGCRSPDYGGGK-NH2
modifications: disulfide I:6-I:13, II:6-II:16; not fully specified (some residues, bridges); printed as Ac-APGTWC*DYDWEYC*WLGTFGGGK{PnAO6-Glut-K[Ac-GVDFRC*EWSDWGEVGC*RSPDYGGGK(JJ-Glut)-NH2]}—NH2; also: 99mTc complex on PnAO6
notes: also called scrambled derivative of D10
Question: Does B10 bind [11]?
Answer: no binding (tested: 10.0 uCi/mL)

Question: Ac-AGWIECYHPDGICYHFGTGGGK-NH2 (disulfide 6-13 (inferred)) [P2-D] was tested. Which “VEGF-induced KDR phosphorylation in HUVECs (immunoblot)” value [2] did it give?
Answer: ≥ 50 % inhibition at 10 µM

Question: Ac-DWYYGGGK-NH2 [F1] was tested. Which IC50 [12] did it give?
Answer: 850 nM

Question: With Ac-AGPTWCEDDWYYCWLFGTGGGK-NH2 (disulfide 6-13; also: fluorescein label (site not given here)) [Fluorescein labeled P12-G] as the binder, how does the Kd [13] read?
Answer: 36.4 nM

Question: What about the Kd [14] of the same binder?
Answer: 33.6 nM

Question: For Ac-GDSRVCWEDSWGGEVCFRYDPGGGK-NH2 (disulfide 6-16 (inferred)) [P6-D], which “IC50, VEGF-induced KDR phosphorylation in HUVECs” value [2] is on record?
Answer: 1000 nM

Question: What about the “VEGF-induced KDR phosphorylation in HUVECs (immunoblot)” value [2] of the same binder?
Answer: ≥ 50 % inhibition at 10 µM

B11: D17 (peptide)
peptide 1: AQDWYYDEILGRGGRGGRGGK
peptide 2: VCWEDSWGGEVCFRYDPGGGK
modifications: not fully specified; N-acetyl; C2-C12 disulfide; C-terminal amide; Lys21 side chain joined to JJ-glutaryl linker; N-acetyl; J (8-amino-3,6-dioxaoctanoyl) between Leu10 and the next Gly; C-terminal Lys side chain bears the branching Lys; C-terminal amide
Question: B11 was tested. Which “IC50, VEGF-induced migration of HUVECs” value [2] did it give?
Answer: ~250 nM
